Two molecules from patent US20040053276A1 (published 2004) can be followed below.

First the molecules themselves.
B2: human DRL90h-FLAG fusion protein, 7.1 kDa molecule cleaved at the furin cleavage site (other)
chain: [pGlu]DRPSKPGFPDEPMREYMHHLLALEHRAEEQFLEHWLNPHCKPHCDRNRIHPVVDYKDDDDK
modifications: also: a pair of intramolecular disulfide bonds
notes: C-terminal processing product of the COS-7 DRL90h-FLAG fusion; The FLAG tail is inferred from detection and purification with anti-FLAG antibody; also called major component of the human DRL90 gene product

Data set [1] deals with B2. The data set can be described thus: non-reducing versus reducing SDS-PAGE and anti-FLAG Western blot; disulfide-linked dimer of the uncleaved and cleaved forms. Here is the method: (§1) Transfection was carried out using 1 µg/well of the pDRL90h-FLAG DNA constructed in Example 3 and Effectene (Qiagen). Twenty-four hours after the transfection, the medium was replaced with serum-free DMEM medium supplemented with 1 ml of 0.1 mM pABSF (Wako Purechemical Industries) and 0.05% CHAPS (Dojin Chemical). Then, the cells were cultured further for 48 hr. The culture supernatant was transferred into Eppendorf sample tubes and centrifuged. After removal of floating cells, the supernatant was concentrated to about 1/10 in volume with Centricon YM-3 ultrafiltration membrane (Millipore). An equal volume of Tricine SDS-PAGE sample buffer (TEFCO) was added to the resultant concentrated culture supernatant. With respect to the cells, they were washed in 1 ml of PBS (Gibco BRL) twice and then 500 l of Tricine SDS-PAGE sample buffer was added thereto. […] After blocking the nitrocellulose filter with PBS containing 0.1% Tween 20 and 50% Block Ace (Snow Brand Milk Products), human DRL90-FLAG fusion protein was detected with antibodies. […] For luminescence, ECL Western Blotting Kit (Amersham Pharmacia Biotech) was used. Chemiluminescence was detected with Hyperfilm ECL (Amersham Pharmacia Biotech). […] The fusion protein in cell fractions was detected as a polypeptide of approx. 9.2 kDa under reducing conditions and as a polypeptide of approx. 21 kDa under non-reducing conditions.

Data set [2] concerns the molecule itself. Description: non-reducing versus reducing SDS-PAGE and anti-FLAG Western blot; disulfide-linked dimer (approx. 21 kDa). Here is the method: as §1
On the technique in general: A western blot detects proteins with antibodies after separation by electrophoresis.

Data set [3] deals with the molecule itself. Description: non-reducing versus reducing SDS-PAGE and anti-FLAG Western blot; disulfide-linked dimer of the cleaved form. As for the experimental part: as §1

[ ]: non-standard residue; d: D form. pGlu = O=C1CC[C@@H](C(=O)O)N1

B1: human DRL90h-FLAG fusion protein, 9.2 kDa molecule not cleaved at the furin cleavage site (other)
chain: SPILTEKQAKQLLRSRRQDRPSKPGFPDEPMREYMHHLLALEHRAEEQFLEHWLNPHCKPHCDRNRIHPVVDYKDDDDK
notes: Expressed in COS-7 cells from pDRL90h-FLAG; It was detected on Western blots after SDS-PAGE; also called human DRL90-FLAG fusion protein
For B1, the binding result in data set [1] and in data set [2] was “binds” throughout.
On to B2, for which the binding result in data set [3] is “binds”.
